The text below walks through data of patent US9371519B2, “Complex type sugar chain hydrolase” (National Institute of Advanced Industrial Science and …, priority 2011, dated 2016).

This data set is described as follows: Hydrolysis activity for various PA-labeled sugar chains (HPLC peak area ratio, relative to M8A). The settings on record: 1 μM substrate, pH 5.3, 30° C. Type of data set: biochemical. As to the method:
(§1) Using the Endo-Om partially purified enzyme solution of the present invention, hydrolysis activity for various PA-labeled commercially available sugar chains (TaKaRa-Bio Inc.) were measured, and the results are shown in the following (Table 1) together with the measurements in a literature on Endo-M (Non Patent Literature 6). The hydrolysis activity at that time was calculated from the peak area ratio between the PA-labeled sugar chain and its hydrolysate as substrates in HPLC, and the relative activity for the various sugar chains was calculated, with the hydrolysis activity for the sugar chain with an M8A structure set at 100%.
as §1, with “Endo-Cp” for “Endo-Om”, “2)” for “1)”
as §1, with “Endo-Pa” for “Endo-Om”, “3)” for “1)”
as §1, with “Endo-Zr” for “Endo-Om”, “4)” for “1)”
Comparison of hydrolysis activity for PA-labeled sugar chains having various structures was carried out as follows. A reaction solution containing a sodium acetate buffer at final concentration of 100 mM (pH 5.3), 0.5 M of NaCl, 1 μM of any of various PA-labeled sugar chains (TaKaRa-Bio Inc.), and an Endo-Om purified enzyme solution (total volume: 10 μl) was incubated at 30° C. for 3 to 12 hours, and heated at 95° C. for 5 minutes thereby stopping the enzyme reaction. The reaction solution was subjected to HPLC, and enzymatic activity was calculated from the peak area ratio between the PA-labeled sugar chain as the substrate and its hydrolysate. The column used herein was Cosmosil 5C18-ARII (2.0.150 mm, Nacalai Tesque, Inc.), the solvents were a 0.1 M ammonium acetate buffer (pH 4.0: solvent A), a 0.1 M ammonium acetate buffer (pH 4.0), and 0.5% 1-butanol (solvent B). Linear gradient elution was carried out using the solvent B: 5%-50% at a flow rate of 0.5 ml/min over a period of 24 minutes, and detection was carried out using a fluorescence detector (excitation wavelength 320 nm, and fluorescence wavelength 400 nm). The enzymatic activity was calculated with the activity hydrolyzing 1 μmol of the PA-labeled sugar chain in 1 minute under the above-described reaction conditions as 1 Unit, and the relative activity for various sugar chains were calculated with the hydrolysis activity for the sugar chain having an M8A structure as 100%. […]

B1: Endo-Om: endo-β-N-acetylglucosaminidase from methylotrophic yeast Ogataea minuta IFO10746, amino acid sequence SEQ ID NO. 1, 772 amino acids (protein, listed as Ogataea minuta)
chain: MAQSQLLGGAVRPVFFDKLEELRRWHTQSANLSRESELDSLNVATEPFSSYERAQTGSGSRSSEPVPGDKEDPPIKLMVCHDFKGGYQDYEDAQPLGYFPHPTGSRYFLQYPQLIDQFVYFSHHRVTVPPVNWINFCHRNGIKCFGTVIFEGNASKDFEELDRLVSRDEKGDFVFVDALIKLAAHYGFDGYLLNIETTFSNTKIAADLEPFAEQLKSGLHCLDSKNELIWYDSYVFPANKVSYTNGVTESNYNFFSLSDAFFSNYWWNIKNLQENIKNVGVLGVQKKIYVGYDVWGRGTLVGKGGFDSSLACKMIAKFKSNVALFAPAWTYESLGPKDFNQNDARFWIGLFENESSISSTVPPHSSAVYKINESSFIFYTNFSSGEGNRFFSKGSEVYRKNWVNGSLQFDLPIDLHRKDKNGLQWALDKSDAFHGGACLEIKYSEIKDENGYQIFNNQMVSDFTLFNFTKECHFPTVNVKVTYKLNHKTKSTFKIKIKYIIERRFRSVQTVRTGYLTIPLLSTSGKWFTVEESFQINLQTSHEYIVLESAHVTYDEDRSADSFFRSYIVEDSAITSVIDNEEYEKLINSEIYNDDEDEDWILVPSDVSISSSESQSNDSKTQYLGRKLFGNKSTPKTRTLEGTAPLLRIGEFAIISANNYPSSNFLAVTSVKSIESSRLEGDSLVLLNWQVGEGHQKGVCYYIIYVNGAVVGLSVAPKFIYQDTELASENSASARSNYKKSGLGSSSDRKSKVRVDSVDKLGNVFTGSEVWV
B1: the “Relative activity (hydrolysis activity for PA-labeled sugar chain)” value came out at 55.9% (substrate drawing 1/drawing 14/drawing 27/drawing 40 (M3B structure), M8A = 100%); 13.7% (substrate drawing 2/drawing 15/drawing 28/drawing 41 (M5A structure per text), M8A = 100%); 100% (substrate drawing 4/drawing 17/drawing 30/drawing 43 (high-mannose type M8A-PA sugar chain, set at 100%)); 81.3% (substrate drawing 5/drawing 18/drawing 31/drawing 44 (M9A structure per text), M8A = 100%); 0.8% (substrate drawing 6/drawing 19/drawing 32/drawing 45, M8A = 100%); 5.9% (substrate drawing 7/drawing 20/drawing 33/drawing 46, M8A = 100%). The “Relative activity (hydrolysis activity for PA-labeled sugar chain)” value is reported as 1.6% (substrate drawing 8/drawing 21/drawing 34/drawing 47, M8A = 100%) and 4.6% (substrate drawing 9/drawing 22/drawing 35/drawing 48, M8A = 100%).
